Each block holds one binder with its values, some of them ahead of it.
Columns and labels:
[1] = target: T1, Heavy chain of U0 (with a knob modification); experiment: co-expression (B/U-2), mass spectrometry
T1 construct: single antibody chain, co-expressed; also called B-H2

[2] = target: T2, Heavy chain of B0 (with a hole modification); experiment: co-expression (B/U-2), mass spectrometry
T2 construct: single antibody chain, co-expressed; also called B-H1 of B/U-2

HJ-4-L2 = target: T3, HJ-4-L2; experiment: mass spectrometry of the product of four co-transfected chains of HJ-4; mispairing of heavy chain 2 with light chain 3
T3 construct: also called chain 3 of HJ-4

[3] = target: T4, HJ-3-H1 (heavy chain of H0, knob, CH1 replaced with T.10-L1); experiment: co-expression of three chains, mass spectrometry
T4 construct: single antibody chain, co-expressed

HJ-3-L1 = target: T5, HJ-3-L1; experiment: mass spectrometry of the product of four co-transfected chains of HJ-3; mispairing of heavy chain 2 with light chain 3
T5 construct: also called chain 3 of HJ-3

HJ-1-L1 = target: T6, HJ-1-L1; experiment: mass spectrometry of the product of four co-transfected chains of HJ-1; mispairing of heavy chain 2 with light chain 3
T6 construct: also called chain 3 of HJ-1

T1 sequence (heavy, as listed by the source): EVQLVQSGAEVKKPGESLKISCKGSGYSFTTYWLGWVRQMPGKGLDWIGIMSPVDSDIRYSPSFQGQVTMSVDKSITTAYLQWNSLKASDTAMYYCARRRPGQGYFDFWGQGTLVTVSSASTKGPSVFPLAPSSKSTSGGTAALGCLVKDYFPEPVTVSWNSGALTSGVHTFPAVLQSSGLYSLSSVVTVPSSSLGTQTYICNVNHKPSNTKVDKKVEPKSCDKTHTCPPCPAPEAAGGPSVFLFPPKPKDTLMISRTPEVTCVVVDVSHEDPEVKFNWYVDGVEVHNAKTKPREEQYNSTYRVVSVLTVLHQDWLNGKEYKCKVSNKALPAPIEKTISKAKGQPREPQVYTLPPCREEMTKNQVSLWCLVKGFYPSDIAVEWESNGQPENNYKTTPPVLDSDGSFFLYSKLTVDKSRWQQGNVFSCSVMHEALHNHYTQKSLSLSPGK
T2 sequence (heavy, as listed by the source): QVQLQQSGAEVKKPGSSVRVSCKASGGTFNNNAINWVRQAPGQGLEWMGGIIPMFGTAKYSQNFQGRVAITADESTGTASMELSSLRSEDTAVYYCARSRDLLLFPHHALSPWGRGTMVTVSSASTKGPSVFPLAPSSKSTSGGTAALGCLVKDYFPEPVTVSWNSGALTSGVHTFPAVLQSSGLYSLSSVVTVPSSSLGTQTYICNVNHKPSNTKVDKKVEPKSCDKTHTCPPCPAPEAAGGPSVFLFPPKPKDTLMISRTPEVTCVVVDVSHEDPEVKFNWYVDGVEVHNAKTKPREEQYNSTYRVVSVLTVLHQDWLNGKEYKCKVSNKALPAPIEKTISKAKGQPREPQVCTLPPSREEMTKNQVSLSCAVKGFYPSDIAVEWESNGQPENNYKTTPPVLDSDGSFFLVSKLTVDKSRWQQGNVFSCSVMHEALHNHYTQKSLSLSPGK

binding result [1]: no binding
binding result [2]: no binding
B1: Chain formed by replacement of CL of light chain of B0 with O.20 (other)
light: SSELTQDPAVSVALGQTVRVTCQGDSLRSYYASWYQQKPGQAPVLVIYGKNNRPSGIPDRFSGSSSGNTASLTITGAQAEDEADYYCSSRDSSGNHWVFGGGTELTVLSGAPRFLTRPLAFVVSVGKDATLSSQIVGNPTPQVSWEKDKQPVTAGARFRLAQDGDLYRLKILDLQLSDSGQYVSRARNAIGEAFACLGLQVDAEA
notes: single antibody chain, co-expressed; also called B-L1 of B/U-1 and B/U-2

binding result (HJ-4-L2): no binding
B2: HJ-4-H1 (other)
heavy: EVQLVESGGGLVQPGGSLRLSCAASGFTFSHYYMAWVRQAPGKGLEWVTSISYEGDITYYGDSVKGRFTISRDNSKNTLYLQMNSLRAEDTATYYCASQTLRESFDYWGQGTLVTVSSASTKGPSVFPLAPSSKSTSGGTAALGCLVKDYFPEPVTVSWNSGALTSGVHTFPAVLQSSGLYSLSSVVTVPSSSLGTQTYICNVNHKPSNTKVDKKVEPKSCDKTHTCPPCPAPEAAGGPSVFLFPPKPKDTLMISRTPEVTCVVVDVSHEDPEVKFNWYVDGVEVHNAKTKPREEQYNSTYRVVSVLTVLHQDWLNGKEYKCKVSNKALPAPIEKTISKAKGQPREPQVCTLPPSREEMTKNQVSLSCAVKGFYPSDIAVEWESNGQPENNYKTTPPVLDSDGSFFLVSKLTVDKSRWQQGNVFSCSVMHEALHNHYTQKSLSLSPGKDYKDDDDK
notes: also called chain 2 of HJ-4

binding result [3]: no binding
B3: Light chain of J1 (other)
light: SIVMTQTPLSLSVTPGQPASISCKASQSVSSDVTWYLQKPGQSPQLLIYYVSEHYTGVPDRFSGSGYGTDFTLKISRVEAEDVGVYYCQQHHRFPLTFGQGTKLEIKRTVAAPSVFIFPPSDEQLKSGTASVVCLLNNFYPREAKVQWKVDNALQSGNSQESVTEQDSKDSTYSLSSTLTLSKADYEKHKVYACEVTHQGLSSPVTKSFNRGEC
notes: single antibody chain, co-expressed; also called HJ-1-L2; HJ-3-L2

binding result (HJ-3-L1): no binding
B4: HJ-3-H2 (other)
heavy: EVQLVQSGAEVKKPGSSVKVSCKASGYTFSNYLIEWVRQAPGQGLEWIGVIDPGVGDTNYNENFKGRATLTADKSTSTAYIELSSLRSEDTAVYYCAREDNTGTAFDYWGQGTTVTVSSASTKGPSVFPLAPSSKSTSGGTAALGCLVKDYFPEPVTVSWNSGALTSGVHTFPAVLQSSGLYSLSSVVTVPSSSLGTQTYICNVNHKPSNTKVDKKVEPKSCDKTHTCPPCPAPEAAGGPSVFLFPPKPKDTLMISRTPEVTCVVVDVSHEDPEVKFNWYVDGVEVHNAKTKPREEQYNSTYRVVSVLTVLHQDWLNGKEYKCKVSNKALPAPIEKTISKAKGQPREPQVCTLPPSREEMTKNQVSLSCAVKGFYPSDIAVEWESNGQPENNYKTTPPVLDSDGSFFLVSKLTVDKSRWQQGNVFSCSVMHEALHNHYTQKSLSLSPGKDYKDDDDK
notes: also called chain 2 of HJ-3

binding result (HJ-1-L1): no binding
B5: HJ-1-H2 (other)
heavy: B4 heavy
notes: also called chain 2 of HJ-1
